Numbering of substitutions follows the chain as printed.
B1: Polypeptide_10 (VHH)
VHH: QVQLQESGGGLVQAGGSLRLSCTVSGRTFSTYAMGWFRQAPGKEREFVADINWNSDNIWYADSVKGRFTISRDNAKNVMYLQMNSLKPEDTAVYYCAADSYGVGGGKEEYYDSWGQGTQVTVSS
notes: VHH_2.10 with C-terminal His tag extension E1; also called [VHH_2.10]-E1
B2: Polypeptide_17 (VHH)
VHH: B1 VHH with Q5V
notes: VHH_2.17 with C-terminal His tag extension E1; also called [VHH_2.17]-E1
B3: Polypeptide_13 (VHH)
VHH: B1 VHH with Q1E, Q5V, S17P
notes: VHH_2.13 with C-terminal His tag extension E1; also called [VHH_2.13]-E1
B4: Polypeptide_4 (VHH)
VHH: B1 VHH with I58L, V78T, A98V, E108P
notes: VHH_2.4 with C-terminal His tag extension E1; also called [VHH_2.4]-E1
B5: Polypeptide_12 (VHH)
VHH: QVQLVESGGGLVQAGGSLRLSCTTSGRTFSSYAMAWFRQAPGKDREFVADIGENSDNIWYADSVKGRFTISRDNAKNTILLQMNSLKPEDTAVYYCAADSYGVGGGKPEYYDSWGQGAQVTVSS
notes: VHH_2.12 with C-terminal His tag extension E1; also called [VHH_2.12]-E1
B6: Polypeptide_6 (VHH)
VHH: B5 VHH with V5Q, S31D, E53T, D56E, I58T, D62E, A75T, L80Y, P108Q
notes: VHH_2.6 with C-terminal His tag extension E1; also called [VHH_2.6]-E1
B7: Polypeptide_8 (VHH)
VHH: QVQLVESGGGLVQPGGSLRLSCAASGFTFSSYWMYWVRQAPGKGLEWVSGINTGGSTPDYADSVKGRFTISRDNAKNTLYLQMNSLRPEDTAVYYCAADTPRSFRLNHYSPLGQGTQVTVSS
notes: VHH_2.8 with C-terminal His tag extension E1; also called [VHH_2.8]-E1
B8: Polypeptide_5 (VHH)
VHH: B7 VHH with V2L, S31N, S103V, N107D
notes: VHH_2.5 with C-terminal His tag extension E1; also called [VHH_2.5]-E1
B9: Polypeptide_2 (VHH)
VHH: B7 VHH with Q1E, S31N, G66D, E89A, S110A
notes: VHH_2.2 with C-terminal His tag extension E1; also called [VHH_2.2]-E1
B10: Polypeptide_9 (VHH)
VHH: B7 VHH with S31N, N52D, G54R, N77S, L79F, A98T, N107Y, S110V
notes: VHH_2.9 with C-terminal His tag extension E1; also called [VHH_2.9]-E1
B11: Polypeptide_18 (VHH)
VHH: B7 VHH with Q1E, S31N, T69A, S103V, N107D
notes: VHH_1.16 with C-terminal His tag extension E1; also called [VHH_1.16]-E1
B12: Polypeptide_3 (VHH)
VHH: QVQLQESGGGLVQAGGSLRLSCTTSGRTFSSYAMGWFRQAPGKEREFVADIGENADNRWYAHSVKGRFTISRDNAKNTVYLQMNSLKPEDTAVYYCAADRYGVGGGAQGYYDSWGQGTQVTVSS
notes: VHH_2.3 with C-terminal His tag extension E1; also called [VHH_2.3]-E1
B13: Polypeptide_14 (VHH)
VHH: B12 VHH with V2L, Q5V, L11S, A14V, G16D, T24F, T28S, R58T, R100S
notes: VHH_2.14 with C-terminal His tag extension E1; also called [VHH_2.14]-E1
B14: Polypeptide_1 (VHH)
VHH: B12 VHH with Q5V, G10D, A14P
notes: VHH_2.1 with C-terminal His tag extension E1; also called [VHH_2.1]-E1
B15: Polypeptide_16 (VHH)
VHH: B12 VHH with Q1E, Q5V, A14P, R19S, T24A
notes: VHH_2.16 with C-terminal His tag extension E1; also called [VHH_2.16]-E1
B16: Polypeptide_7 (VHH)
VHH: B12 VHH with Q1E, Q5V, G10R, L11W, A14P, G16A
notes: VHH_2.7 with C-terminal His tag extension E1; also called [VHH_2.7]-E1
B17: Polypeptide_33 (VHH)
VHH: B12 VHH with Q1E, Q5V, A14P, M34V, R58T, R100S
notes: VHH_1.9 with C-terminal His tag extension E1; also called [VHH_1.9]-E1
B18: Polypeptide_11 (VHH)
VHH: EVQLVESGGGLVQAGGSLRLSCTASGRSFSSYAMGWFRQAPGKEREFVADIGVNPDNTWYADSAKGRFTISRDNAKNTMYLQMNSLKPEDTAVYYCAADSYGVGGGAERYYDSWGQGTQVTVSS
notes: VHH_2.11 with C-terminal His tag extension E1; also called [VHH_2.11]-E1
B19: Polypeptide_15 (VHH)
VHH: QVQLQESGGGLVQAGGSLRLSCTASGGTFSEYAMAWFRQAPGKEREFVTDIGESGGTWYADSVKGRFTISRDNAKNTVYLQMNSLRPEDTAVYYCAADSYGVGGGAERYYDSWGQGTQVTVSS
notes: VHH_2.15 with C-terminal His tag extension E1; also called [VHH_2.15]-E1
B20: Polypeptide_35 (VHH)
VHH: B19 VHH with Q5V, S30G
notes: VHH_1.10 with C-terminal His tag extension E1; also called [VHH_1.10]-E1
B21: Polypeptide_52 (VHH)
VHH: EVQLVESGGGLVQPGGSLKLSCTTSGRTFSEYAVGWFRQAPGKEREFVADIGEQAENTWYAESVLGRFTISRDDAKNTVYLEMDGLKPEDTAVYYCAADKYGVGGNAQGYYDSWGQGTQVTVSS
B22: Polypeptide_58 (VHH)
VHH: B21 VHH with T28R, D74N
B23: Polypeptide_57 (VHH)
VHH: B21 VHH with T28R, L65K
B24: Polypeptide_54 (VHH)
VHH: B21 VHH with T28R, Q54N
B25: Polypeptide_60 (VHH)
VHH: B21 VHH with T28R, G85S
B26: Polypeptide_59 (VHH)
VHH: B21 VHH with T28R, D84N
B27: Polypeptide_56 (VHH)
VHH: B21 VHH with T28R, E62H
B28: Polypeptide_61 (VHH)
VHH: B21 VHH with T28R, K100S
B29: Polypeptide_53 (VHH)
VHH: B21 VHH with T28R, E31S
B30: Polypeptide_62 (VHH)
VHH: B21 VHH with T28R, N106G
B31: Polypeptide_55 (VHH)
VHH: B21 VHH with T28R, E56D

Target: T1, human IL-6 (mature hIL-6) (human, UniProt P05231 30-212)
Experiment: cell-based or functional assay

T1 sequence (P05231 30-212): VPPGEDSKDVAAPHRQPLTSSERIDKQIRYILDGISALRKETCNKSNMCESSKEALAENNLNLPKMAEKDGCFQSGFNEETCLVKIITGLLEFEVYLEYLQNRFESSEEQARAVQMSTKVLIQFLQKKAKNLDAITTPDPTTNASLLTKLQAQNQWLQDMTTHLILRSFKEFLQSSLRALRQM

Binder | Reporter gene-assay [pM]
B1 | 114 pM
B2 | 84.1 pM
B3 | 80.9 pM
B4 | 198 pM
B5 | 77.4 pM
B6 | 73.4 pM
B7 | 36.8 pM
B8 | 23.2 pM
B9 | 20.7 pM
B10 | 33.7 pM
B11 | 18.5 pM
B12 | 39.8 pM
B13 | 72.9 pM
B14 | 47.4 pM
B15 | 52.4 pM
B16 | 42.1 pM
B17 | 62.1 pM
B18 | 98.2 pM
B19 | 16.8 pM
B20 | 24.6 pM

Target: T1, human IL-6 (mature hIL-6)
Experiment: SPR (format not stated)

Binder | Kd
B1 | 1.03 nM
B2 | 0.257 nM
B3 | 0.001 nM
B4 | 1.46 nM
B5 | 0.001 nM
B6 | 1.52 nM
B7 | 0.816 nM
B8 | 0.696 nM
B9 | 1.31 nM
B10 | 0.903 nM
B11 | 0.705 nM
B12 | 0.872 nM
B13 | 0.396 nM
B14 | 0.627 nM
B15 | 0.001 nM
B16 | 0.631 nM
B17 | 0.358 nM
B18 | 0.0701 nM
B19 | 0.001 nM
B20 | 0.001 nM

Target: T1, human IL-6 (mature hIL-6)
Experiment: cell-based or functional assay
Remark: another data set of the same source

Binder | IC 50 (nM), reporter gene assay, 0% HSA | IC 50 (nM), reporter gene assay, 1% HSA
B11 | 0.02 nM | 0.02 nM

Target: T1, human IL-6 (mature hIL-6)
Experiment: cell-based or functional assay
Remark: another data set of the same source

Binder | IC50 (nM), STAT3-luc reporter gene assay | Relative IC50 to Reference Polypeptide_29
B21 | 0.055 nM | 1.6 fold
B22 | 0.047 nM | 1.4 fold
B23 | 0.08 nM | 2.3 fold
B24 | 0.15 nM | 4.4 fold
B25 | 0.057 nM | 1.7 fold
B26 | 0.043 nM | 1.2 fold
B27 | 0.168 nM | 4.9 fold
B28 | 0.054 nM | 1.6 fold
B29 | 0.05 nM | 1.5 fold
B30 | 0.13 nM | 3.8 fold
B31 | 0.278 nM | 8.1 fold

Reference: patent US20250333496A1 (Novo Nordisk, published 2025)
